Data from article PMC9127447, “The Lipid-Binding Defective Dynamin 2 Mutant in Charcot-Marie-Tooth Disease Impairs Proper Actin Bundling and Actin Organization in Glomerular Podocytes” (Frontiers in Cell and Developmental Biology, 2022).

How the values were obtained:
[1] = target: Non-muscle actin (actin filaments) (UniProt P60709 1-375); test: cell-based or functional assay
[2] = target: the molecule itself; test: cell-based or functional assay

| release of free phosphate (GTPase activity) by dynamin 2 (1.5 uM) with actin filaments (1 uM), 100 mM KCl, relative to that without actin [1] [fold] | Binder | GTPase activity under low ionic strength buffer, relative to dynamin 2-WT [2] |
| --- | --- | --- |
| 6 | His-tagged rat dynamin 2-WT (enzyme, UniProt P39052 1-870, looked up) MGNRGMEELIPLVNKLQDAFSSIGQSCHLDLPQIAVVGGQSAGKSSVLENFVGRDFLPRGSGIVTRRPLILQLIFSKTEYAEFLHCKSKKFTDFDEVRQEIEAETDRVTGTNKGISPVPINLRVYSPHVLNLTLIDLPGITKVPVGDQPPDIEYQIKDMILQFISRESSLILAVTPANMDLANSDALKLAKEVDPQGLRTIGVITKLDLMDEGTDARDVLENKLLPLRRGYIGVVNRSQKDIEGRKDIRAALAAERKFFLSHPAYRHMADRMGTPHLQKTLNQQLTNHIRESLPTLRSKLQSQLLSLEKEVEEYKNFRPDDPTRKTKALLQMVQQFGVDFEKRIEGSGDQVDTLELSGGARINRIFHERFPFELVKMEFDEKDLRREISYAIKNIHGVRTGLFTPDLAFEAIVKKQVVKLKEPCLKCVDLVIQELISTVRQCTSKLSSYPRLREETERIVTTYIREREGRTKDQILLLIDIEQSYINTNHEDFIGFANAQQRSTQLNKKRAIPNQGEILVIRRGWLTINNISLMKGGSKEYWFVLTAESLSWYKDEEEKEKKYMLPLDNLKIRDVEKGFMSNKHVFAIFNTEQRNVYKDLRQIELACDSQEDVDSWKASFLRAGVYPEKDQAENEDGAQENTFSMDPQLERQVETIRNLVDSYVAIINKSIRDLMPKTIMHLMINNTKAFIHHELLAYLYSSADQSSLMEESAEQAQRRDDMLRMYHALKEALNIIGDISTSTVSTPVPPPVDDTWLQNTSSHSPTPQRRPVSSVHPPGRPPAVRGPTPGPPLIPMPVGATSSFSAPPIPSRPGPQNVFANNDPFSAPPQIPSRPARIPPGIPPGVPSRRAPAAPSRPTIIRPAEPSLLD |  |
| 4 | His-tagged rat dynamin 2-K562E (enzyme, UniProt P39052 1-870, looked up) MGNRGMEELIPLVNKLQDAFSSIGQSCHLDLPQIAVVGGQSAGKSSVLENFVGRDFLPRGSGIVTRRPLILQLIFSKTEYAEFLHCKSKKFTDFDEVRQEIEAETDRVTGTNKGISPVPINLRVYSPHVLNLTLIDLPGITKVPVGDQPPDIEYQIKDMILQFISRESSLILAVTPANMDLANSDALKLAKEVDPQGLRTIGVITKLDLMDEGTDARDVLENKLLPLRRGYIGVVNRSQKDIEGRKDIRAALAAERKFFLSHPAYRHMADRMGTPHLQKTLNQQLTNHIRESLPTLRSKLQSQLLSLEKEVEEYKNFRPDDPTRKTKALLQMVQQFGVDFEKRIEGSGDQVDTLELSGGARINRIFHERFPFELVKMEFDEKDLRREISYAIKNIHGVRTGLFTPDLAFEAIVKKQVVKLKEPCLKCVDLVIQELISTVRQCTSKLSSYPRLREETERIVTTYIREREGRTKDQILLLIDIEQSYINTNHEDFIGFANAQQRSTQLNKKRAIPNQGEILVIRRGWLTINNISLMKGGSKEYWFVLTAESLSWYKDEEEKEKEYMLPLDNLKIRDVEKGFMSNKHVFAIFNTEQRNVYKDLRQIELACDSQEDVDSWKASFLRAGVYPEKDQAENEDGAQENTFSMDPQLERQVETIRNLVDSYVAIINKSIRDLMPKTIMHLMINNTKAFIHHELLAYLYSSADQSSLMEESAEQAQRRDDMLRMYHALKEALNIIGDISTSTVSTPVPPPVDDTWLQNTSSHSPTPQRRPVSSVHPPGRPPAVRGPTPGPPLIPMPVGATSSFSAPPIPSRPGPQNVFANNDPFSAPPQIPSRPARIPPGIPPGVPSRRAPAAPSRPTIIRPAEPSLLD | ~0.33 of dynamin 2-WT |
